One molecule from PMC8350011, “Interactions between semaphorins and plexin–neuropilin receptor complexes in the membranes of live cells” (The Journal of Biological Chemistry, 2021) can be followed below.

Holding throughout (test): PIE-FCCS (pulsed-interleaved excitation fluorescence cross-correlation spectroscopy); single live Cos-7 cells co-expressing eGFP and mCherry fusions, peripheral membrane, no exogenous ligand; 85 to 1245 molecules/μm^2; fraction correlated (fc): median below 0.09 monomer, 0.09-0.17 dimer, above 0.17 higher oligomers (homotypic)
One series concerns the target T1, plexin A4 (human, UniProt Q9HCM2 24-1894).
T1 construct: Two constructs (eGFP and mCherry fusions); The N1 vectors probably put the fluorescent protein at the C-terminus; also called plexin A4-eGFP; plexin A4-mCh; source: Cos-7, transiently transfected, in the membrane of live cells
The note with it: partners not purified.

Another series addresses T2, plexin A4ΔSema (human, UniProt Q9HCM2 24-1894, deletes residues 39 to 506).
T2 construct: also called plexin A4ΔSema-eGFP; plexin A4ΔSema-mCh; source: Cos-7, transiently transfected, in the membrane of live cells
T2 sequence (looked up): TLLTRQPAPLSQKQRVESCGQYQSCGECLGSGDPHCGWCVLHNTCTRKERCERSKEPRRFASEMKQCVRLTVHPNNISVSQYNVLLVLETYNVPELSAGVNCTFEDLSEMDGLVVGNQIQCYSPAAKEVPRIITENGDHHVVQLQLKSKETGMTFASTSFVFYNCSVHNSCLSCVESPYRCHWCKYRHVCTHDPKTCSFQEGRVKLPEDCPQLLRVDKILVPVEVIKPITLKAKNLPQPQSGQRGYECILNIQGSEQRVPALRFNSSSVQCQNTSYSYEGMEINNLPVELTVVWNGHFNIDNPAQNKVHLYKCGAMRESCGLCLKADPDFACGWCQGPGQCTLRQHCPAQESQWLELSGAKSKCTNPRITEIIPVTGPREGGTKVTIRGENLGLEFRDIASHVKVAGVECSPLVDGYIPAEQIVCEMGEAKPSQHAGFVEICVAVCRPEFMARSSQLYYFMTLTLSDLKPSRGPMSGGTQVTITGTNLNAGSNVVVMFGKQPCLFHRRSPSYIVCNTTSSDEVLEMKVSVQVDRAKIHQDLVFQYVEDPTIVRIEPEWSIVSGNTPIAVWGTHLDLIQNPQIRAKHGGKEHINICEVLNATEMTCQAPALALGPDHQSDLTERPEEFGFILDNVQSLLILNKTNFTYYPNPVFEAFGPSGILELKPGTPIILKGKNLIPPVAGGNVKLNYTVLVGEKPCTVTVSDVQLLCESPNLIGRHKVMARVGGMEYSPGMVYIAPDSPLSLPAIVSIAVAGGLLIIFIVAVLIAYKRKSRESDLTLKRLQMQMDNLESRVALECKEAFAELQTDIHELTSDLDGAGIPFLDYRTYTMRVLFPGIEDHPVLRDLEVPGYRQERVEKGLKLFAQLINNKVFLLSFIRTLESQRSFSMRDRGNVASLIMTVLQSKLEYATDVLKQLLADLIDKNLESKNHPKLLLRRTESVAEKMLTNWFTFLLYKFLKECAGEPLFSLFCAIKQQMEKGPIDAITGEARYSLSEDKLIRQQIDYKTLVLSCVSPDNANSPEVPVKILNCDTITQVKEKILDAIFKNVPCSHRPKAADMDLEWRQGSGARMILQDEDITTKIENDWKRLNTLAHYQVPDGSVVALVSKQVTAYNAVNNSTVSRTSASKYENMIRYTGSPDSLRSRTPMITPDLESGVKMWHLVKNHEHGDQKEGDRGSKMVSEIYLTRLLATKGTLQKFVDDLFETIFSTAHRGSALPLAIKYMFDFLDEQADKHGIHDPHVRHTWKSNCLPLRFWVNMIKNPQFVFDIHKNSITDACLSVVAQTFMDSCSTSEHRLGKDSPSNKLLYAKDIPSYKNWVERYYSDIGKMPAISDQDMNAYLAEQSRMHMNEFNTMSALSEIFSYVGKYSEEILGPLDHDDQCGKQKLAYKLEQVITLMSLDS
Particulars: partners not purified.

Series [1] concerns the molecule itself.

B1: plexin A2 (receptor, human, UniProt O75051 35-1894, looked up)
chain: MPQFSTFHSENRDWTFNHLTVHQGTGAVYVGAINRVYKLTGNLTIQVAHKTGPEEDNKSCYPPLIVQPCSEVLTLTNNVNKLLIIDYSENRLLACGSLYQGVCKLLRLDDLFILVEPSHKKEHYLSSVNKTGTMYGVIVRSEGEDGKLFIGTAVDGKQDYFPTLSSRKLPRDPESSAMLDYELHSDFVSSLIKIPSDTLALVSHFDIFYIYGFASGGFVYFLTVQPETPEGVAINSAGDLFYTSRIVRLCKDDPKFHSYVSLPFGCTRAGVEYRLLQAAYLAKPGDSLAQAFNITSQDDVLFAIFSKGQKQYHHPPDDSALCAFPIRAINLQIKERLQSCYQGEGNLELNWLLGKDVQCTKAPVPIDDNFCGLDINQPLGGSTPVEGLTLYTTSRDRMTSVASYVYNGYSVVFVGTKSGKLKKIRADGPPHGGVQYEMVSVLKDGSPILRDMAFSIDQRYLYVMSERQVTRVPVESCEQYTTCGECLSSGDPHCGWCALHNMCSRRDKCQQAWEPNRFAASISQCVSLAVHPSSISVSEHSRLLSLVVSDAPDLSAGIACAFGNLTEVEGQVSGSQVICISPGPKDVPVIPLDQDWFGLELQLRSKETGKIFVSTEFKFYNCSAHQLCLSCVNSAFRCHWCKYRNLCTHDPTTCSFQEGRINISEDCPQLVPTEEILIPVGEVKPITLKARNLPQPQSGQRGYECVLNIQGAIHRVPALRFNSSSVQCQNSSYQYDGMDISNLAVDFAVVWNGNFIIDNPQDLKVHLYKCAAQRESCGLCLKADRKFECGWCSGERRCTLHQHCTSPSSPWLDWSSHNVKCSNPQITEILTVSGPPEGGTRVTIHGVNLGLDFSEIAHHVQVAGVPCTPLPGEYIIAEQIVCEMGHALVGTTSGPVRLCIGECKPEFMTKSHQQYTFVNPSVLSLNPIRGPESGGTMVTITGHYLGAGSSVAVYLGNQTCEFYGRSMSEIVCVSPPSSNGLGPVPVSVSVDRAHVDSNLQFEYIDDPRVQRIEPEWSIASGHTPLTITGFNLDVIQEPRIRVKFNGKESVNVCKVVNTTTLTCLAPSLTTDYRPGLDTVERPDEFGFVFNNVQSLLIYNDTKFIYYPNPTFELLSPTGVLDQKPGSPIILKGKNLCPPASGGAKLNYTVLIGETPCAVTVSETQLLCEPPNLTGQHKVMVHVGGMVFSPGSVSVISDSLLTLPAIVSIAAGGSLLLIIVIIVLIAYKRKSRENDLTLKRLQMQMDNLESRVALECKEAFAELQTDINELTSDLDRSGIPYLDYRTYAMRVLFPGIEDHPVLRELEVQGNGQQHVEKALKLFAQLINNKVFLLTFIRTLELQRSFSMRDRGNVASLIMTGLQGRLEYATDVLKQLLSDLIDKNLENKNHPKLLLRRTESVAEKMLTNWFAFLLHKFLKECAGEPLFMLYCAIKQQMEKGPIDAITGEARYSLSEDKLIRQQIEYKTLILNCVNPDNENSPEIPVKVLNCDTITQVKEKILDAVYKNVPYSQRPRAVDMDLEWRQGRIARVVLQDEDITTKIEGDWKRLNTLMHYQVSDRSVVALVPKQTSSYNIPASASISRTSISRYDSSFRYTGSPDSLRSRAPMITPDLESGVKVWHLVKNHDHGDQKEGDRGSKMVSEIYLTRLLATKGTLQKFVDDLFETLFSTVHRGSALPLAIKYMFDFLDEQADRHSIHDTDVRHTWKSNCLPLRFWVNVIKNPQFVFDIHKGSITDACLSVVAQTFMDSCSTSEHRLGKDSPSNKLLYAKDIPSYKSWVERYYADIAKLPAISDQDMNAYLAEQSRLHAVEFNMLSALNEIYSYVSKYSEELIGALEQDEQARRQRLAYKVEQLINAMSIES
notes: Two constructs (pEGFP-N1 and pmCh-N1, EcoR1 and Kpn1 sites); the N1 vectors probably put the fluorescent protein at the C-terminus; also called plexin A2-eGFP; plexin A2-mCh; source: Cos-7, transiently transfected, in the membrane of live cells
Usually stoichiometry N stands for a count of units in the complex or per binding partner. For B1, the “median fraction correlated (fc)” value with plexin A4 came out at 0.08; with plexin A4ΔSema, 0.23; in series [1], 0.09. Moreover, the “stoichiometry N” value in series [1] came to 2.
